Experimental data from US12551596B2, “Delivery systems for administration of cationic biological actives” (Allvivo Vascular, Inc., priority 2017, dated 2026).

Experiment: Stability of ASP-1 in PU 077 catheter coating after EO sterilization and storage, HPLC
Type: physicochemical
Conditions: coated on catheters, EO sterilized, stored at room temperature up to 9 months
Procedure: Composition (lot K-132, Table 9.1) comprising ASP-1 peptide (SEQ ID NO: 17 in Table A), custom synthesized hydrophilic medical grade polyurethane (PU 077), polyoxyl 15 hydroxystearate (PEG-15-HS) and citric acid monohydrate (CAxH2O) was prepared by dissolving components in MEK/ethanol solvent and dip coated on 7 Fr triple lumen catheters.
The obtained ASP-1 coated catheters were sterilized by ethylene oxide (EO) gas, vacuum dried and pouched in aluminum foil bags supplied with a desiccant pouch. Peptide purity and recovery from coatings before EO sterilization and after EO sterilization and storage was measured by HPLC after full extraction from catheters.

RRWVRRVRRWVRRVVRVVRRWVRR (Antimicrobial peptide) [ASP-1]
stability of ASP-1 peptide in catheter coating: good stability
